This assay deals with B7.1 on mouse macrophages (CRL-2751) (mouse) (UniProt Q00609). The experiment in a line: flow cytometry on mouse macrophages stained with FITC anti-B7-1 after medium from naive HEK-293 cells.

Our source for the percent of macrophages B7-positive in the absence of CTLA4IgG values is patent US20140147418A1.

Chain of UniProt Q00609 (Q00609 38-306): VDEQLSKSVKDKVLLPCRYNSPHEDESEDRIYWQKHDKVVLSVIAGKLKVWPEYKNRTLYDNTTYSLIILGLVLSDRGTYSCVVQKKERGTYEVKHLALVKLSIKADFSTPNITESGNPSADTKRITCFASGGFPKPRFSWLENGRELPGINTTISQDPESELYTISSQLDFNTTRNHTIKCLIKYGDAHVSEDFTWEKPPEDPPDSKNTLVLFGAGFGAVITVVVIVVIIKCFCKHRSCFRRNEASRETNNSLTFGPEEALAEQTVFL

The substance “Armenian hamster IgG FITC-conjugated anti B7-1 (Santa Cruz Biotechnology) (antibody)” registered a percent of macrophages B7-positive in the absence of CTLA4IgG of 18%.
